According to patent US20230002480A1:

How the values were obtained:
Assay in all cases: cell-based or functional assay
[1] = target: HIV-1 Env pseudovirus T255-34 (HIV-1)
[2] = target: HIV-1 Env pseudovirus C1080.c03 (HIV-1)
[3] = target: HIV-1 Env pseudovirus A07412M1.vrc12 (HIV-1)
[4] = target: HIV-1 Env pseudovirus C2101.c01 (HIV-1)
[5] = target: HIV-1 Env pseudovirus 928-28 (HIV-1)
[6] = target: HIV-1 Env pseudovirus 0815.v3.c3 (HIV-1)
[7] = target: HIV-1 Env pseudovirus 3817.v2.c59 (HIV-1)
[8] = target: HIV-1 Env pseudovirus 3301.v1.c24 (HIV-1)
[9] = target: HIV-1 Env pseudovirus 620345.c01 (HIV-1)
[10] = target: HIV-1 Env pseudovirus T251-18 (HIV-1)
[11] = target: HIV-1 Env pseudovirus P1981_C5_3 (HIV-1)
[12] = target: HIV-1 Env pseudovirus X1193_c1 (HIV-1)
[13] = target: HIV-1 Env pseudovirus T250-4 (HIV-1)
[14] = target: HIV-1 Env pseudovirus X2088_c9 (HIV-1)
[15] = target: HIV-1 Env pseudovirus 6811.v7.c18 (HIV-1)
[16] = target: HIV-1 Env pseudovirus 6041.v3.c23 (HIV-1)
[17] = target: HIV-1 Env pseudovirus BJOX025000.01.1 (HIV-1)
[18] = target: HIV-1 Env of pseudovirus CNE30 (clade BC) (HIV-1)
[19] = target: HIV-1 Env of pseudovirus ZM249M.PL1 (clade C) (HIV-1)
[20] = target: HIV-1 Env of pseudovirus ZM109F.PB4 (clade C) (HIV-1)
[21] = target: HIV-1 Env of pseudovirus RHPA4259.7 (clade B) (HIV-1)
[22] = target: HIV-1 Env of pseudovirus Ce1172_H1 (clade C (T/F)) (HIV-1)
[23] = target: HIV-1 Env of pseudovirus TRO.11 (clade B) (HIV-1)
[24] = target: HIV-1 Env of pseudovirus Q23.17 (clade A) (HIV-1)
[25] = target: HIV-1 Env of pseudovirus 1056_10_TA11_1826 (clade B (T/F)) (HIV-1)
[26] = target: HIV-1 Env of pseudovirus BJOX009000.02.4 (clade CRF01_AE) (HIV-1)
[27] = target: HIV-1 Env of pseudovirus C2101.c01 (clade CRF01_AE) (HIV-1)
[28] = target: HIV-1 Env of pseudovirus 620345.c01 (clade CRF01_AE) (HIV-1)
[29] = target: HIV-1 Env of pseudovirus T278-50 (clade CRF02_AG) (HIV-1)
[30] = target: HIV-1 Env of pseudovirus C3347.c11 (clade CRF01_AE) (HIV-1)
[31] = target: HIV-1 Env of pseudovirus 235-47 (clade CRF02_AG) (HIV-1)
[32] = target: HIV-1 Env of pseudovirus X1193_c1 (clade G) (HIV-1)
[33] = target: HIV-1 Env of pseudovirus BJOX010000.06.2 (clade CRF01_AE (T/F)) (HIV-1)

Q: How did the IC50 [1] turn out when N49P9.1 (antibody) was run?
A: 0.092 µg/mL

Q: And the IC80 [1]?
A: 0.286 µg/mL

Q: And the MPI [1]?
A: 100

Q: What about the IC50 [2] of the same substance?
A: 0.156 µg/mL

Q: And the IC80 [2]?
A: 0.939 µg/mL

Q: What about the MPI [2] of the same substance?
A: 100

Q: What about the IC50 [3] of the same substance?
A: 0.189 µg/mL

Q: What about the IC80 [3] of the same substance?
A: 0.947 µg/mL

Q: What about the MPI [3] of the same substance?
A: 100

Q: What about the IC50 [4] of the same substance?
A: 0.085 µg/mL

Q: And the IC80 [4]?
A: 0.227 µg/mL

Q: What about the MPI [4] of the same substance?
A: 100

Q: What about the IC50 [5] of the same substance?
A: 0.163 µg/mL

Q: And the IC80 [5]?
A: 0.695 µg/mL

Q: What about the MPI [5] of the same substance?
A: 100

Q: And the IC50 [6]?
A: 0.012 µg/mL

Q: What about the IC80 [6] of the same substance?
A: 0.041 µg/mL

Q: What about the MPI [6] of the same substance?
A: 100

Q: And the IC50 [7]?
A: 1.35 µg/mL

Q: What about the IC80 [7] of the same substance?
A: 8.26 µg/mL

Q: And the MPI [7]?
A: 95

Q: What about the IC50 [8] of the same substance?
A: 0.059 µg/mL

Q: And the IC80 [8]?
A: 0.178 µg/mL

Q: And the MPI [8]?
A: 100

Q: And the IC50 [9]?
A: > 50 µg/mL

Q: And the IC80 [9]?
A: > 50 µg/mL

Q: And the MPI [9]?
A: 7

Q: What about the IC50 [10] of the same substance?
A: 0.127 µg/mL

Q: And the IC80 [10]?
A: 0.352 µg/mL

Q: What about the MPI [10] of the same substance?
A: 100

Q: And the IC50 [11]?
A: 0.469 µg/mL

Q: What about the IC80 [11] of the same substance?
A: 1.52 µg/mL

Q: And the MPI [11]?
A: 100

Q: What about the IC50 [12] of the same substance?
A: 0.042 µg/mL

Q: What about the IC80 [12] of the same substance?
A: 0.15 µg/mL

Q: And the MPI [12]?
A: 100

Q: What about the IC50 [13] of the same substance?
A: > 50 µg/mL

Q: What about the IC80 [13] of the same substance?
A: > 50 µg/mL

Q: What about the MPI [13] of the same substance?
A: 7

Q: And the IC50 [14]?
A: 0.091 µg/mL

Q: And the IC80 [14]?
A: 0.392 µg/mL

Q: And the MPI [14]?
A: 100

Q: What about the IC50 [15] of the same substance?
A: 0.398 µg/mL

Q: And the IC80 [15]?
A: 1.76 µg/mL

Q: And the MPI [15]?
A: 97

Q: And the IC50 [16]?
A: 0.282 µg/mL

Q: And the IC80 [16]?
A: 6.78 µg/mL

Q: What about the MPI [16] of the same substance?
A: 90

Q: And the IC50 [17]?
A: 0.131 µg/mL

Q: And the IC80 [17]?
A: 0.67 µg/mL

Q: What about the MPI [17] of the same substance?
A: 100

Q: Which IC50 [18] does the source give for N49P11 (antibody) here?
A: 0.889 µg/mL

Q: And the IC80 [18]?
A: 4.45 µg/mL

Q: And the MPI [18]?
A: 100

Q: And the IC50 [19]?
A: 3.64 µg/mL

Q: What about the IC80 [19] of the same substance?
A: 17.4 µg/mL

Q: And the MPI [19]?
A: 100

Q: What about the IC50 [20] of the same substance?
A: 5.2 µg/mL

Q: And the IC80 [20]?
A: 19.4 µg/mL

Q: And the MPI [20]?
A: 100

Q: And the IC50 [21]?
A: 0.202 µg/mL

Q: And the IC80 [21]?
A: 0.956 µg/mL

Q: And the MPI [21]?
A: 100

Q: And the IC50 [22]?
A: 3.55 µg/mL

Q: What about the IC80 [22] of the same substance?
A: 19.2 µg/mL

Q: And the MPI [22]?
A: 100

Q: What about the IC50 [23] of the same substance?
A: 0.179 µg/mL

Q: What about the IC80 [23] of the same substance?
A: 0.937 µg/mL

Q: And the MPI [23]?
A: 100

Q: What about the IC50 [24] of the same substance?
A: 0.034 µg/mL

Q: And the IC80 [24]?
A: 0.254 µg/mL

Q: And the MPI [24]?
A: 100

Q: What about the IC50 [25] of the same substance?
A: 4.77 µg/mL

Q: And the IC80 [25]?
A: 14.2 µg/mL

Q: What about the MPI [25] of the same substance?
A: 100

Q: Which results are given for N49P18.1 (antibody)?
A: IC50 [18]: 13.1 µg/mL; IC80 [18]: 32.2 µg/mL; MPI [18]: 93; IC50 [19]: 4.16 µg/mL; IC80 [19]: 19.8 µg/mL; MPI [19]: 98; IC50 [20]: 26.6 µg/mL; IC80 [20]: > 50 µg/mL; MPI [20]: 69; IC50 [21]: 4.34 µg/mL; IC80 [21]: 21.4 µg/mL; MPI [21]: 98; IC50 [22]: 46.4 µg/mL; IC80 [22]: > 50 µg/mL; MPI [22]: 52; IC50 [23]: 4.25 µg/mL; IC80 [23]: 11.7 µg/mL; MPI [23]: 99; IC50 [24]: 1.16 µg/mL; IC80 [24]: 6.93 µg/mL; MPI [24]: 100; IC50 [25]: 30.5 µg/mL; IC80 [25]: > 50 µg/mL; MPI [25]: 62

Q: With N49P19 (antibody) as the substance, how does the IC50 [1] read?
A: 0.948 µg/mL

Q: What about the IC80 [1] of the same substance?
A: 6.22 µg/mL

Q: And the MPI [1]?
A: 97

Q: And the IC50 [2]?
A: 0.682 µg/mL

Q: And the IC80 [2]?
A: 3.05 µg/mL

Q: And the MPI [2]?
A: 100

Q: What about the IC50 [3] of the same substance?
A: 3.89 µg/mL

Q: And the IC80 [3]?
A: 48.8 µg/mL

Q: And the MPI [3]?
A: 80

Q: What about the IC50 [4] of the same substance?
A: 0.978 µg/mL

Q: And the IC80 [4]?
A: 4.19 µg/mL

Q: And the MPI [4]?
A: 100

Q: And the IC50 [5]?
A: 2.73 µg/mL

Q: And the IC80 [5]?
A: 9.63 µg/mL

Q: And the MPI [5]?
A: 97

Q: What about the IC50 [6] of the same substance?
A: 0.176 µg/mL

Q: What about the IC80 [6] of the same substance?
A: 0.743 µg/mL

Q: And the MPI [6]?
A: 100

Q: What about the IC50 [7] of the same substance?
A: > 50 µg/mL

Q: And the IC80 [7]?
A: > 50 µg/mL

Q: And the MPI [7]?
A: 26

Q: And the IC50 [8]?
A: 0.302 µg/mL

Q: What about the IC80 [8] of the same substance?
A: 1.42 µg/mL

Q: And the MPI [8]?
A: 98

Q: And the IC50 [9]?
A: > 50 µg/mL

Q: What about the IC80 [9] of the same substance?
A: > 50 µg/mL

Q: And the MPI [9]?
A: 0

Q: And the IC50 [10]?
A: 0.938 µg/mL

Q: What about the IC80 [10] of the same substance?
A: 4.2 µg/mL

Q: What about the MPI [10] of the same substance?
A: 100

Q: And the IC50 [11]?
A: 20.2 µg/mL

Q: And the IC80 [11]?
A: > 50 µg/mL

Q: And the MPI [11]?
A: 68

Q: And the IC50 [12]?
A: 0.54 µg/mL

Q: And the IC80 [12]?
A: 3.15 µg/mL

Q: What about the MPI [12] of the same substance?
A: 99

Q: And the IC50 [13]?
A: > 50 µg/mL

Q: And the IC80 [13]?
A: > 50 µg/mL

Q: And the MPI [13]?
A: 7

Q: What about the IC50 [14] of the same substance?
A: 1.4 µg/mL

Q: And the IC80 [14]?
A: 3.76 µg/mL

Q: And the MPI [14]?
A: 99

Q: What about the IC50 [15] of the same substance?
A: 1.3 µg/mL

Q: And the IC80 [15]?
A: 4.71 µg/mL

Q: What about the MPI [15] of the same substance?
A: 97

Q: And the IC50 [16]?
A: > 50 µg/mL

Q: And the IC80 [16]?
A: > 50 µg/mL

Q: And the MPI [16]?
A: 32

Q: And the IC50 [17]?
A: > 50 µg/mL

Q: What about the IC80 [17] of the same substance?
A: > 50 µg/mL

Q: And the MPI [17]?
A: 24

Q: How did the IC50, titer in TZM.bl cells [26] turn out when PG9 (antibody) was run?
A: 1.73 µg/mL

Q: What about the IC80, titer in TZM.bl cells [26] of the same substance?
A: 8.21 µg/mL

Q: And the IC50, titer in TZM.bl cells [27]?
A: 0.034 µg/mL

Q: And the IC80, titer in TZM.bl cells [27]?
A: 0.099 µg/mL

Q: What about the IC50, titer in TZM.bl cells [28] of the same substance?
A: 1.33 µg/mL

Q: And the IC80, titer in TZM.bl cells [28]?
A: > 50 µg/mL

Q: And the IC50, titer in TZM.bl cells [29]?
A: 0.393 µg/mL

Q: And the IC80, titer in TZM.bl cells [29]?
A: 3.19 µg/mL

Q: What about the IC50, titer in TZM.bl cells [30] of the same substance?
A: 0.032 µg/mL

Q: And the IC80, titer in TZM.bl cells [30]?
A: 0.113 µg/mL

Q: What about the IC50, titer in TZM.bl cells [31] of the same substance?
A: 0.233 µg/mL

Q: What about the IC80, titer in TZM.bl cells [31] of the same substance?
A: 1.2 µg/mL

Q: And the IC50, titer in TZM.bl cells [32]?
A: 0.105 µg/mL

Q: What about the IC80, titer in TZM.bl cells [32] of the same substance?
A: 0.304 µg/mL

Q: And the IC50, titer in TZM.bl cells [33]?
A: 0.154 µg/mL

Q: What about the IC80, titer in TZM.bl cells [33] of the same substance?
A: 0.74 µg/mL
